Assays:
Test in all cases: purified protein
purified protein [1] = substrate: Nc1c(S(=O)(=O)O)cc(Nc2cccc(S(=O)(=O)CCOS(=O)(=O)O)c2)c2c1C(=O)c1ccccc1C2=O; assay type: biochemical, Pleurotus ostreatus; conditions: 0.25 mM H2O2, 0.1 M tartrate pH 3.5, 25 °C
purified protein [2] = substrate: COc1cccc(OC)c1O; conditions: 0.25 mM H2O2, 0.1 M tartrate pH 3.5 (table note; methods say pH 3), 25 °C
purified protein [3] = substrate: Nc1c(S(=O)(=O)O)cc(Nc2cccc(S(=O)(=O)CCOS(=O)(=O)O)c2)c2c1C(=O)c1ccccc1C2=O; conditions: 0.25 mM H2O2, 0.1 M tartrate pH 3.5, 25 °C, pH 3.5
purified protein [4] = substrate: Nc1c(N=Nc2ccc(S(=O)(=O)CCOS(=O)(=O)O)cc2)c(S(=O)(=O)O)cc2cc(S(=O)(=O)O)c(N=Nc3ccc(S(=O)(=O)CCOS(=O)(=O)O)cc3)c(O)c12; conditions: 0.25 mM H2O2, 0.1 M tartrate pH 3.5 (table note; methods say pH 3), 25 °C
purified protein [5] = substrate: CCn1c(=NN=c2sc3cc(S(=O)(=O)O)ccc3n2CC)sc2cc(S(=O)(=O)O)ccc21; assay type: biochemical, Pleurotus ostreatus; conditions: 0.25 mM H2O2, 0.1 M tartrate pH 3.5, 25 °C

| Protein | Km (purified protein [1]) [µM] | kcat (purified protein [1]) [s⁻¹] | kcat/Km (purified protein [1]) [M⁻¹ s⁻¹] | Km (purified protein [2]) [µM] | kcat (purified protein [2]) [s⁻¹] | kcat/Km (purified protein [2]) [M⁻¹ s⁻¹] | Km (purified protein [3]) [µM] | kcat (purified protein [3]) [s⁻¹] | kcat/Km (purified protein [3]) [M⁻¹ s⁻¹] | Km (purified protein [4]) [µM] | kcat (purified protein [4]) [s⁻¹] | kcat/Km (purified protein [4]) [M⁻¹ s⁻¹] | Km (purified protein [5]) [µM] | kcat (purified protein [5]) [s⁻¹] | kcat/Km (purified protein [5]) [M⁻¹ s⁻¹] |
| --- | --- | --- | --- | --- | --- | --- | --- | --- | --- | --- | --- | --- | --- | --- | --- |
| Pleos-VP2 (Pleurotus ostreatus) (protein) VTCATGQTTANEACCALFPILDDIQTNLFDGAQCGEEVHESLRLTFHDAIAFSPALTNAGQFGGGGADGSMIIFSDTEPNFHANLGIDEIVEAQKPFIARHNICAADFIQFAGAIGVSNCAGAPRLNFFLGRPDATQIPPDGLVPEPFDDVTKILSRMGDAGFSTVEVVWLLSSHTIAAADLVDPSIPGTPFDSTPSTFDSQFFLETMLQGTAFPGTPGNQGEVESPLAGEMRLQSDFLLARDSRSACEWQSMVNNMPKIQNRFTQVMKKLSLLGHNQADLIDCSDVIPVPKTLTKAATFPAGKSQADVEIVCNAAATPFPALSSDPGPVTAVPPVPPS | 16 ± 1 | 8 ± 0.2 | 495000 | – | – | – | – | – | – | – | – | – | – | – | – |
| Pleos-DyP4 (Pleurotus ostreatus PC15) (protein) MTTPAPPLDLNNIQGDILGGLPKRTETYFFFDVTNVDQFKANMAHFIPHIKTSAGIIKDREAIKEHKRQKKPGLVPMAAVNVSFSHLGLQKLGITDDLSDNAFTTGQRKDAEILGDPGSKNGDAFTPAWEAPFLKDIHGVIFVAGDCHGSVNKKLDEIKHIFGVGTSHASISEVTHVRGDVRPGDVHAHEHFGFLDGISNPAVEQFDQNPLPGQDPIRPGFILAKENGDSRAAARPDWAKDGSFLTFRYLFQMVPEFDDFLESNPIVLPGLSRKEGSELLGARIVGRWKSGAPIEITPLKDDPKLAADAQRNNKFDFGDSLVRGDQTKCPFAAHIRKTYPRNDLEGPPLKADIDNRRIIRRGIQFGPEVTSQEHHDKKTHHGRGLLFVCYSSSIDDGFHFIQESWANAPNFPVNAVTSAGPIPPLDGVVPGFDAIIGQKVGGGIRQISGTNPNDPTTNITLPDQDFVVPRGGEYFFSPSITALKTKFAIGVASPAPHSQAPISA | – | – | – | 126 ± 21 | 268 ± 24 | 2.12e+06 | 82 ± 13 | 152 ± 13 | 1.86e+06 | 5.7 ± 0.4 | 5.3 ± 0.8 | 1.08e+06 | 787 ± 160 | 277 ± 24 | 352000 |

Reference: PMC4619462, “Description of the first fungal dye-decolorizing peroxidase oxidizing manganese(II)” (Applied Microbiology and Biotechnology, 2015)
